Values of other authors, collected in paper PMC5466818.

Molecular target: formin Bnr1 (Saccharomyces cerevisiae) (UniProt P40450)
Sequence of UniProt P40450 (P40450 whole entry): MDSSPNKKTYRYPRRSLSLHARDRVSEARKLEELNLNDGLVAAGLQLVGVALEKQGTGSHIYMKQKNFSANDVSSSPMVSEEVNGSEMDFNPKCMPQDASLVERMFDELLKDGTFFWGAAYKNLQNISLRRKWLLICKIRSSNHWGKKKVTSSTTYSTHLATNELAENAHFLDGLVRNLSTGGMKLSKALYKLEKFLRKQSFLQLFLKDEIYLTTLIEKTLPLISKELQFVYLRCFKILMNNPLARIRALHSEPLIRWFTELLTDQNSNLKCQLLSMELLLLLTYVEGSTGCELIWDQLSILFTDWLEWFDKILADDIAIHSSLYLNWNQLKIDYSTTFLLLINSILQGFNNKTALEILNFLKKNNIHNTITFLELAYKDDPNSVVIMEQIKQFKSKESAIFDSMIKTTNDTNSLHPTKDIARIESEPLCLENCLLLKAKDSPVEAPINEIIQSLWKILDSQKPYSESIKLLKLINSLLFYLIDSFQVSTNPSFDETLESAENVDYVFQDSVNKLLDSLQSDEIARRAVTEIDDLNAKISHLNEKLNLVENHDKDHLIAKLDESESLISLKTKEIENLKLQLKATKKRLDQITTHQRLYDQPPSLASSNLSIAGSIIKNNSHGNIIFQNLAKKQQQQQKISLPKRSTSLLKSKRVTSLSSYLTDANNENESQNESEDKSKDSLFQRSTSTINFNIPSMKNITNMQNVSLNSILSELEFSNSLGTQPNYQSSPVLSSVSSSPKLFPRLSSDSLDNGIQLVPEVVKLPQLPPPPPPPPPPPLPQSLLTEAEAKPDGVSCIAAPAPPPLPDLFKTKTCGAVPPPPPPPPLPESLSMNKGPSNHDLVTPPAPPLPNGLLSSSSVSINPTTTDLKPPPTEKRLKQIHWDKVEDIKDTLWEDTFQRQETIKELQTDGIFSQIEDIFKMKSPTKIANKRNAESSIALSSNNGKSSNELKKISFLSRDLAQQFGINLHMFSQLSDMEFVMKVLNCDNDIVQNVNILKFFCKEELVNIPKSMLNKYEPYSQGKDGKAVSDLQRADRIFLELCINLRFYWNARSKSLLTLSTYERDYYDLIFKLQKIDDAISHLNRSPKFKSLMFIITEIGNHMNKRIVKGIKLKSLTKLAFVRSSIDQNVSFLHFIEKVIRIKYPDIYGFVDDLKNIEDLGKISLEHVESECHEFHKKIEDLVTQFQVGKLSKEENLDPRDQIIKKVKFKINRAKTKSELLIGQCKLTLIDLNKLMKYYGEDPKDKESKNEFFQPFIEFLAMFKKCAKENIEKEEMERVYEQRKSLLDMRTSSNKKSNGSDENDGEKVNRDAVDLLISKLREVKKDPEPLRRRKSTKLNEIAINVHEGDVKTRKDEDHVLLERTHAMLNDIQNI

Bud14 (from UniProt P27637)
Kd: 0.015 µM
